What was measured:
[1] = target: T1, human RPA (RPA70/RPA32/RPA14) (human, UniProt P27694;P15927;P35244 1-616;1-270;1-121); test: fluorescence anisotropy
[2] = target: T1, human RPA (RPA70/RPA32/RPA14); test: stopped-flow Trp fluorescence

T1 sequence (P27694 whole entry, chain 1 of 3): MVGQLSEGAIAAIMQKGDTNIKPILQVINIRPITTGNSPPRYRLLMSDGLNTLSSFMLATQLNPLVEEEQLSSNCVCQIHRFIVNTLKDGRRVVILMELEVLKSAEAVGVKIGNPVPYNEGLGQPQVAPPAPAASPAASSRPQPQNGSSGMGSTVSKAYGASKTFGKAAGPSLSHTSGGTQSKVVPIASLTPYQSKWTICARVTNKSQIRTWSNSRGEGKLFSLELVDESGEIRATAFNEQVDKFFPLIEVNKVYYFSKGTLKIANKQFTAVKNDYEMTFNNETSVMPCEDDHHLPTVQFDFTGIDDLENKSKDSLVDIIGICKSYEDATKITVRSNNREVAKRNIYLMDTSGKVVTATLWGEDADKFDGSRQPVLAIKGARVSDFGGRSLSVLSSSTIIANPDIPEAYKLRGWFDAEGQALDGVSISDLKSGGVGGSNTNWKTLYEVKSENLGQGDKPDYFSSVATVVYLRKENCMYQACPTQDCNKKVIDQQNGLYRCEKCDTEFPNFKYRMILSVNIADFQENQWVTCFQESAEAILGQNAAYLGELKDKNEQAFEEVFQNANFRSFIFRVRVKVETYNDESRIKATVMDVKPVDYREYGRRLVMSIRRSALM
T1 sequence (P15927 whole entry, chain 2 of 3): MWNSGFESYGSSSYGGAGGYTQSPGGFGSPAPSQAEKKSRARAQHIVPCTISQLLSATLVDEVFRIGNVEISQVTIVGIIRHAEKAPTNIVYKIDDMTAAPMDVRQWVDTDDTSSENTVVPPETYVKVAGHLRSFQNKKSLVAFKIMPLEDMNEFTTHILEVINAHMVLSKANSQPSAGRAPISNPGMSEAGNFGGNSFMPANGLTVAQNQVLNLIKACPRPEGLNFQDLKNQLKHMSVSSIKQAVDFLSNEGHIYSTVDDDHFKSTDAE
T1 sequence (P35244 whole entry, chain 3 of 3): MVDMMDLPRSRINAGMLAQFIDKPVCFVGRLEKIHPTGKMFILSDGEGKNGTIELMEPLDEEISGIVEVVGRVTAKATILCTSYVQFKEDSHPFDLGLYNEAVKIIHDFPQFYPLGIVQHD

Row | Binder | binding result [1] | binding result [2]
1 | TTTTTTTTTTTTTTTTTTTTTTTTTTTTTTTTTTT (ssDNA) [5'-FAM-(dT)35] | binds | 
2 | TTTTTTTTTTTTTTTTTTTTTTTTTTTTTTTTTTT (ssDNA) [(dT)35] |  | binds

Reference: publication PMC10923064
